test: yeast display, Sf9 membrane polyspecificity reagent, FACS + sequencing; frameworks hold sequencing errors
Summary of the method: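 Nanobodies came from a synthetic yeast display library in Saccharomyces cerevisiae BJ5465, induced with galactose for 36–48 hours and stained for 1 hour at 4 °C with 10% biotinylated, detergent-solubilized Sf9 membrane reagent. Cells were enriched on streptavidin microbeads and then FACS-sorted, with low and high (top ~1%) gates set on anti-HA fluorescence for expression and streptavidin fluorescence for reagent binding. Each polyreactivity label reflects the gate a clone came from. Genes were amplified by colony PCR, sequenced by MiSeq 2 × 250 and filtered by CDR length.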

| Sequence | polyreactivity (PSR sort gate) |
| --- | --- |
| QVQLVESGGGLVQAGGSLRLSCAASGLIFGGNAMGWYRQAPGKERELVAAISRSTGRTYYADSVKGRFTISRDTAKNTVYLQMNSLKPEDTAVYYCNAVGYAFPSYDSWGQGTQVTVSS | high polyreactivity |
| QVQLVESGGGLVQAGGSLRLSCAASGFTCSSNAMGWSRLAAGKERELVAAISSSGARTYYADSVKGRFTISRDNAKTTVYLQMNSLKPEDTAVYYCNARGLAGRKGYDYGGQGTQVTVSS | high polyreactivity |
| QVQLVESGGGLVQSGGSLRLSCAASGNTFHSNAMGWYRQAPGKERELVAAITPSDGDTYYADSVKGRFTISRDNAKNTVYLQMNSLKPEDTAVYYCNARKQVYKIYYSDYRRYDYWGQGTQVTVSS | low polyreactivity |
| QVHLVESGGCLVQAGCSLRLSCAASGRTFGWNVMGWYRQAPGTERELVAAISGSGGSTYYADSVKGRFTISRDNAKNTVYLQMNSLKPEDTAVYYCAALYGPGREYDYWGQGTQVTVSS | low polyreactivity |
| QVQHVESGGGLVQAGGSLRLICAASGSTFGDNAKGRYREAPGKERELVAVITSDTSTYYADSVKGRFTISRDNAKNTVYLQMNSLKPEDTAVYYCAADWGGLWFWYEYWGQGTQVTVSS | low polyreactivity |
| QVQLVESGGGLVQAGGSLRLGCAASGITFTPYAMGWYRQAPGKERELVAAISWRGGSTYYADSVKGRFTISRDNAKNTVYLQMNSLKPEDTAVYFCAKDGRGYGRYSRYYTGDYWGQGTQVTVSS | low polyreactivity |
| QVQLVESGGGLVQAGGSLRLSCAASGSIFYLYAMGWYRQAPGKERELVASISWGDSSTYYADSVKGRFTISRDNAKNTVYLQMNSLKPEDTAVYYCAADEYRQYALYDYWGQGTQVTVSS | low polyreactivity |
| QVQLVESGGGLVQAGGSLRLSCAASGSIFPPYTMGWYRQAPGKERELVAAISWGGGSTYYADSVKGRFTISRDNAKNTVYLQMNSLKPEDTAVYYCAAGRYYRGYYWGQGTQVTVSS | high polyreactivity |
| QVQLVESGGGLVQAGGSLRLSCAASGSIFLDNAMGWYRQAPGKERELVAAISKSGTRTYYADSVKGRFTISRDNAKTTVYLQMNSLKPEDTAVFYCNVVPKQAKRVELIGYYYWGQGTQVTVSS | high polyreactivity |
| QVQLVESGGGLVQAGGSLRLSCAASGRPFYVYAMGWYRQAPGKERELVASIRRSGGITYYADSVKGRFTISRDNAKNTVYLQMNSLKPEDTAVYYCNARRGPGRREYDYWGQGTQVTVSS | high polyreactivity |
| QVHLVESGGGLVQAGGSLRLSCAASGRIFTYYAMGWYRQAPGKERELFAGISRSGTSSYYADSVKGSFTISRDNAKNTVYLQMNSLKPEDTAVYYCAADVFRDDVWLDYWGQGTQVTVSS | low polyreactivity |
| QVQLVESGGGLVQAGGSLRLSCAASGSIFGDNAMGWYRQAPGKERELVASITWSGGSTFYADSVKGRFTISRDNAQITVYLQMNSLKPEDTAVYYCAADTAEYLYDMDYWGQGTQVTVSS | low polyreactivity |
| QVQLVESGGGLVQAGGSLRLSCAASGSIFIYNAMGWYRQAPGKERELVAAISSSGGSTYYADSVKGRFTISRDYAKNTVYLQLNSLKPEDTAVYYCAARTYYVRGLGGRPGMDYWGQGTHVTVSS | low polyreactivity |
| QVQLVESGGGLVQAGGSLRVICAASGIIFPIYAMGWYRQAPGKEWELVAGISTGGGGTYYADSVKGRFTISRDNAKNTVYLQKNSLKPEDTAVYYCNVDAAGSNSHARHDSWGQGTQVTVSS | low polyreactivity |
| QVQLVESGGGLVQAGGSLRLSCDASGLTFGWNAMGWSRQAPGKERELVAALSYNGVSTHYADTVKGRFTISRDNAKNTVYLQMNSLKPEDTAVYYCAARALTWPYGGTAPRLYNYWGQGTQVTVSS | low polyreactivity |
| QVQLVESGGGLVQAGGSLRLSCAASGSTFLINAMGWYRQAPRKERELVATISSGGSTYYADSVKGRFTISRDNAKNTVYLQMNSLKPEDTAVYSCAADPDRTAYDYWGQGTQVTVSS | low polyreactivity |
| QVQLVESGGGLVQAGGSLRLSCAASGLTLSYYAMGWYRQAPGKERELVAAISSGGSTYYADSVKGRFTISRDNAKNTVYLQMNSLKPEDTAVYYCAAQWWRLYWEYYYWGQGTQVTVSS | low polyreactivity |
| QVQLVESGRGIVQAGGSLRLSCAASGRTFYVYTMGWYRQAPGKERELVAAITSGGSTNYADSVKGRFTISRDNAKNTLYLQMNSLKPEDTAVYYCAARVSTVFKRYYYWGQGTQVTVSS | high polyreactivity |
| QVQLVESGGGLVQAGGSLRLSCAASGSIFRSYAMGWYRQAPGKERELVAAIRSDGRTNYADSVKGRFTISRDNAKNTVYLQMNSLKPEDTAVYYCAAKAYYSYWRSMDYWGQGTQVTVSS | low polyreactivity |
| QVQLVESGGGLVQAGGSLRLSCAASGNSFYFYAMGWYRQAPGKERELVAAIDLTDGSTYYADSVKGRFTISRDNAKNTVYLQMNSLKPEDTAVYYCAADWVTFYSYTEYDYWGLGTQVTVSS | low polyreactivity |
| QVQLVESGGGLVQAGGSLRLSCAASGFTFQDYAMGWYRQAPGKERELVAAISTSDGNTYYADSVKGRFTISRDNAKNTVYLQMNSLKPEDTAVYYCAAQRNYGWVKFYYWGQGTQVTVSS | high polyreactivity |
| QVQLVETGGGLVQAGGSLRISCAASGIIFRNYAKGWYTQAPGKERELVADISWSGGTTYYADSVKGRFTISRDNEKHTVYLQMNSLKPEDTAVYYCAASSYRRQYGYWGQGTQVTVSS | high polyreactivity |
| QVQLVESGGCLLQAGGSLRLSCAASGYIFERNAMGWYRQAPGKERELVAAITDDGDDTYYADSVKGRFTISRDNEKNTVYLQMNSLKPEDTAVYYCAKDLYYGDYYYWGQGTQVTVSS | low polyreactivity |
| QVQLVESGGRLVQAGGSLRLSCAASGRIFRYYTMGWYRQAPGKERELVAAITRRGGITNYADSVKGRFTISRDNAKNTVYLQTNSLKPEDTAVYYCAAKYVSQGYDYWGQGTQVTVSS | high polyreactivity |
| QVQLVESGGGLVQAGGSLRLSCAASGSIFIYYAMGWYRQAPGKERELVAAISWSGGDTYYADSVKGRFTISRDNAKNTVYFHMNILKPEDTAVYYCNADYYPYYPYTAWDTVLTHDEYWGQGTQVTVSS | low polyreactivity |
| QVQLVESGGGLVQAGGSLRLSCAASGRTFSYYAMGWYRQAPGKERELVAVISVSGGSTYYADSVKGRFTISRDNAKNTVYLQMNSLKPEDTAVYYCNVDLYYGYDYWGQGTQVTVSS | low polyreactivity |
| QVQLVESGGGLVQAGGSLRLSCAASGRTFYTNAMGWYRQAPGKERELVAVISRGGTTYYADSVKGRFTISRDNAKYTVYFQMNSLKPEDTAVYYCAKQRPSGDSSSQLGSWGQGTQVTVSS | low polyreactivity |
| QVQLVESGGGLVQAGGSLRLSCAASGLIFYSYTMGWYRQAPGKERELVASITWTGGSTYYADSVKGRFTISRDNAKNTVYLQMNSLKPEDTAVYYCAVRVPSSIHIQLDYWGQGTQVTVSS | high polyreactivity |
| QVQLVESGGGLVQAGGSLRLSSAASGSIFLVNAMGWYRQAPGKERELVAAINSGGSTYYADSVKGRFTISRDNAKNTVYLQMNSLKPEDTAVYYCAADFWLKVWQDTDYDFDYWGQGTQVTVSS | low polyreactivity |
| QVQLVESGGGLVQAGGSLRLSCAASGRTFWDYAMGWYRQAPGKERELVAAITGGDSTYADSVKGRFTISRDNAKNTVYLQMNSLKPEDTAVYYCNADSTWDPYVRWALLYEYWGQGTQVTVSS | low polyreactivity |

From the nanobody polyreactivity screen of Harvey et al. (2022)
